The series has as its target T1, AP2-G D1 (Plasmodium falciparum, UniProt Q8I5I9 2123-2245).
T1 sequence: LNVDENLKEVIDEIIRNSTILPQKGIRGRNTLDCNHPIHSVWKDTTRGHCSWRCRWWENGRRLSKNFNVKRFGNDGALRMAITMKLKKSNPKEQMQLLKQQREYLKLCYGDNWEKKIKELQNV
Put plainly: gcPBM; about 25 ug protein; PBS, 1% milk, 0.2 mg/ml BSA, salmon testes DNA, 0.03% Triton X-100. As to conditions: tags: N-terminal GST (pGEX-4T-1), kept; label: surface-attached array probe.

B1: XGTACX_site150 (dsDNA)
DNA 1: ATATACATATATATATGTACTGAAAAGAAAAGAATT
DNA 2: AATTCTTTTCTTTTCAGTACATATATATATGTATAT
Regarding B1, the binding signal was 11.4 ln median PBM intensity, better of two orientations.

B2: XGTACX_site8539 (dsDNA)
DNA 1: AAATAAAGTAAAATATGTACATAAATTAAAACACAT
DNA 2: ATGTGTTTTAATTTATGTACATATTTTACTTTATTT
For B2, the binding signal is 11.6 ln median PBM intensity, better of two orientations.

B3: XGTACX_site2966 (dsDNA)
DNA 1: AAACATATAAATCACGGTACACATTATTGAAAGTGT
DNA 2: ACACTTTCAATAATGTGTACCGTGATTTATATGTTT
On to B3, for which the binding signal was 11.6 ln median PBM intensity, better of two orientations.

B4: XGTACX_site5139 (dsDNA)
DNA 1: TATATACAGAATATATGTACATATTCATTTTATATT
DNA 2: AATATAAAATGAATATGTACATATATTCTGTATATA
As for B4, the binding signal is 11.4 ln median PBM intensity, better of two orientations.

B5: XGTACX_site1737 (dsDNA)
DNA 1: AGATCTATTATTTTTTGTACTTATATATAAACTTAA
DNA 2: TTAAGTTTATATATAAGTACAAAAAATAATAGATCT
With B5, the binding signal is 11.5 ln median PBM intensity, better of two orientations.

B6: XGTACX_site8657 (dsDNA)
DNA 1: ATTAAGATGTATATATGTACATATTACATACATATA
DNA 2: TATATGTATGTAATATGTACATATATACATCTTAAT
In the case of B6, the binding signal was 11.4 ln median PBM intensity, better of two orientations.

B7: XGTACX_site5309 (dsDNA)
DNA 1: CTATACAATAAAAATTGTACATACATATATGTTATA
DNA 2: TATAACATATATGTATGTACAATTTTTATTGTATAG
Consider B7, for which the binding signal is 11.3 ln median PBM intensity, better of two orientations.

B8: XGTACX_site2720 (dsDNA)
DNA 1: TCCTATTTTATATAATGTACATAAATATATTACATA
DNA 2: TATGTAATATATTTATGTACATTATATAAAATAGGA
With B8, the binding signal was 11.5 ln median PBM intensity, better of two orientations.

B9: XGTACX_site84 (dsDNA)
DNA 1: AATTAAATGGATAAATGTACATATGTGAATATATTT
DNA 2: AAATATATTCACATATGTACATTTATCCATTTAATT
For the molecule B9, the binding signal is 11.4 ln median PBM intensity, better of two orientations.

B10: XGTACX_site8691 (dsDNA)
DNA 1: AAAAATATTTTGGTTTGTACATATATTTTTACAATA
DNA 2: TATTGTAAAAATATATGTACAAACCAAAATATTTTT
Regarding B10, the binding signal was 11.5 ln median PBM intensity, better of two orientations.

B11: XGTACX_site5503 (dsDNA)
DNA 1: TATATATATATAGGTTGTACATTTTGATGTTTACGT
DNA 2: ACGTAAACATCAAAATGTACAACCTATATATATATA
For B11, the binding signal is 11.5 ln median PBM intensity, better of two orientations.

B12: XGTACX_site6680 (dsDNA)
DNA 1: TTTGTATATTATTTTAGTACATAACATTGAAGATAT
DNA 2: ATATCTTCAATGTTATGTACTAAAATAATATACAAA
As for B12, the binding signal was 11.4 ln median PBM intensity, better of two orientations.

B13: XGTACX_site4915 (dsDNA)
DNA 1: AACGAAAACACTACGTGTACCAAACGTCCTACTAAC
DNA 2: GTTAGTAGGACGTTTGGTACACGTAGTGTTTTCGTT
As to B13, the binding signal is 11.5 ln median PBM intensity, better of two orientations.

B14: XGTACX_site8514 (dsDNA)
DNA 1: AGTATTATATATATATGTACATAATATACATATATA
DNA 2: TATATATGTATATTATGTACATATATATATAATACT
Take B14: the binding signal was 11.6 ln median PBM intensity, better of two orientations.

B15: XGTACX_site5737 (dsDNA)
DNA 1: TAATGGAATACATATAGTACATAATATTACATACAT
DNA 2: ATGTATGTAATATTATGTACTATATGTATTCCATTA
With B15, the binding signal is 11.3 ln median PBM intensity, better of two orientations.

B16: XGTACX_site583 (dsDNA)
DNA 1: ATAATATATATATAGTGTACATTTGAATATATTTGA
DNA 2: TCAAATATATTCAAATGTACACTATATATATATTAT
For B16, the binding signal is 11.6 ln median PBM intensity, better of two orientations.

B17: XGTACX_site2945 (dsDNA)
DNA 1: AAGCATAAAGTATATAGTACATATATATATATATAT
DNA 2: ATATATATATATATATGTACTATATACTTTATGCTT
In the case of B17, the binding signal is 11.3 ln median PBM intensity, better of two orientations.
